Reference: publication PMC11931385, “Structural and functional analysis of cancer-associated missense variants in the retinoblastoma protein pocket domain” (The Journal of Biological Chemistry, 2025)
Where a chain is given by its changes, count along the chain named. Numbers in names are those of the source. No end group written: not given here. TMR = tetramethyl rhodamine dye

T1: Rb^P R741H (human, UniProt P06400 380-788, R741H)
T1 construct: also called variant 69
T1 sequence (looked up): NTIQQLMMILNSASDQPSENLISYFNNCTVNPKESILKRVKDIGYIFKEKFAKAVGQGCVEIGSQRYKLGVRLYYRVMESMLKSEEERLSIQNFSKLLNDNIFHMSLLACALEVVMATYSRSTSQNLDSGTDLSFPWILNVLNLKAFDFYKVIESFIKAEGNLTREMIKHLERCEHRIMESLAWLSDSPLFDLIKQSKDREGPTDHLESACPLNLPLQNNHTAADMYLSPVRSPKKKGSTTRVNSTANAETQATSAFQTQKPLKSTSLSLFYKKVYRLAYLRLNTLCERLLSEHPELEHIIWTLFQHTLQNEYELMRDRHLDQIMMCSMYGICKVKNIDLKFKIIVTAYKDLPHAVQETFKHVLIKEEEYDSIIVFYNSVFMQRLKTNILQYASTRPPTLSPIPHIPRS

T2: Rb^P R656Q (human, UniProt P06400 380-788, R656Q)
T2 construct: also called variant 48
T2 sequence (looked up): T1 sequence (looked up) with R277Q, H362R

T3: Rb^P Q504E (human, UniProt P06400 380-788, Q504E)
T3 construct: also called variant 19
T3 sequence (looked up): T1 sequence (looked up) with Q125E, H362R

T4: Rb^P S671F (human, UniProt P06400 380-788, S671F)
T4 construct: also called variant 53
T4 sequence (looked up): T1 sequence (looked up) with S292F, H362R

T5: Rb^P P595L (human, UniProt P06400 380-788, P595L)
T5 construct: also called variant 35
T5 sequence (looked up): T1 sequence (looked up) with P216L, H362R

B1: TMR-E2F1^TD, peptide of the E2F1 transactivation domain (peptide)
peptide: {TMR}-GEGIRDLFDCDFGDLTPLD
notes: also called E2F^TD; source: synthetic peptide, bought: GenScript
B2: TMR-E7^LxCxE, LxCxE peptide of the E7 oncoprotein from HPV (peptide)
peptide: DLYCYEQLN
modifications: also: TMR label, position not given here
notes: source: synthetic peptide, bought: GenScript

Experiments:
Test in all cases: fluorescence polarisation; 37 °C, after the 25 °C reading ramped over 7 min to 37 °C and 2 min incubation; unlabeled Rb^P against 1.5 nM TMR-E2F1^TD or 7.5 nM TMR-E7^LxCxE; 25 mM Tris pH 8.0, 200 mM NaCl, 1 mM DTT, 0.1% Tween-20; apparent Kd
Conditions in all cases: both partners purified
Rb^P R741H = target: T1, Rb^P R741H
Rb^P R656Q = target: T2, Rb^P R656Q
Rb^P Q504E = target: T3, Rb^P Q504E
Rb^P S671F = target: T4, Rb^P S671F
Rb^P P595L = target: T5, Rb^P P595L

| Binder | Kd (Rb^P R741H) | Kd (Rb^P R656Q) | Kd (Rb^P Q504E) | Kd (Rb^P S671F) | Kd (Rb^P P595L) |
| --- | --- | --- | --- | --- | --- |
| B1 | 41 nM | 325 nM | 33 nM | 46 nM | 83 nM |
| B2 | 21 nM | 14 nM | 11 nM | 19 nM | 32 nM |
